In this series the target is T1, GST-CmABF3 (Chrysanthemum morifolium, UniProt A0A7T8G3B9 1-415).
T1 sequence: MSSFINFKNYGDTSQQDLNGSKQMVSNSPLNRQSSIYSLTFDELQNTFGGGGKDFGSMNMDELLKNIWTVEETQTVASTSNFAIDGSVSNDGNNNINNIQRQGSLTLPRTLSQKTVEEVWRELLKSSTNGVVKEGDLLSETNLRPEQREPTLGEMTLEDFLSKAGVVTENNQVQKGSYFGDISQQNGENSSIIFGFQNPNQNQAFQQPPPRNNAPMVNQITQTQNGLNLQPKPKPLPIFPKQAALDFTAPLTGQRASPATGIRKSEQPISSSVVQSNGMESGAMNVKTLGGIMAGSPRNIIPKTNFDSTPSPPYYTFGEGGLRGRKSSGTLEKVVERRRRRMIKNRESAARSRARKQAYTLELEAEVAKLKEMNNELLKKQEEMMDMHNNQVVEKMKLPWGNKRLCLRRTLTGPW
The experiment in a line: EMSA; 3 ug protein; cold-probe competition 100-5000x, outcome only in gel; LightShift Chemiluminescent EMSA kit, 20 ul reaction, 3 ug protein; biotin probe 50 nM or 2 nM (Methods); buffer, salt, pH and temperature not stated. The note with it: protein: recombinant; tags: GST (N-terminal, pGEX); chain copies: 2; blunt. (In EMSA bound probe runs differently from free probe, usually more slowly.)

This note sets out measurements from article PMC7496117, “A zinc finger protein BBX19 interacts with ABF3 to affect drought tolerance negatively in chrysanthemum”.

B1: proRAB18-probe (CmRAB18 promoter, two ABRE motifs) (dsDNA)
DNA 1: GAAATTAGACACGTACTTTTCAGTGATAACATAAACATACTTACGTGTTC
DNA 2: GAACACGTAAGTATGTTTATGTTATCACTGAAAAGTACGTGTCTAATTTC
Take B1: the binding result was “binds”.
